Experimental data from US11529390B2, “PCSK9 inhibitory polypolypeptides and methods of use” (INSTITUT DE CARDIOLOGIE DE MONTREAL, priority 2015, dated 2022).
Read-outs that look alike come from different tables or passages of the source.

B1: SEQ ID. NO. 64: alanine-scanning mutant of GRP94-ΔKDEL, CBD region YAASAAAAAIMKAQAYQTGKDISTNYY (SEQ ID. NO. 78) (protein, listed as Homo Sapiens)
chain: MRALWVLGLCCVLLTFGSVRADDEVDVDGTVEEDLGKSREGSRTDDEVVQREEEAIQLDGLNASQIRELREKSEKFAFQAEVNRMMKLIINSLYKNKEIFLRELISNASDALDKIRLISLTDENALSGNEELTVKIKCDKEKNLLHVTDTGVGMTREELVKNLGTIAKSGTSEFLNKMTEAQEDGQSTSELIGQFGVGFYSAFLVADKVIVTSKHNNDTQHIWESDSNEFSVIADPRGNTLGRGTTITLVLKEEASDYLELDTIKNLVKKYSQFINFPIYVWSSKTETVEEPMEEEEAAKEEKEESDDEAAVEEEEEEKKPKTKKVEKTVWDWELMNDIKPIWQRPSKEVEEDEYKAFYKSFSKESDDPMAYIHFTAEGEVTFKSILFVPTSAPRGLFDEYGSKKSDYIKLYVRRVFITDDFHDMMPKYLNFVKGVVDSDDLPLNVSRETLQQHKLLKVIRKKLVRKTLDMIKKIADDKYNDTFWKEFGTNIKLGVIEDHSNRTRLAKLLRFQSSHHPTDITSLDQYVERMKEKQDKIYFMAGSSRKEAESSPFVERLLKKGYEVIYLTEPVDEYCIQALPEFDGKRFQNVAKEGVKFDESEKTKESREAVEKEFEPLLNWMKDKALKDKIEKAVVSQRLTESPCALVASQYAASAAAAAIMKAQAYQTGKDISTNYYASQKKTFEINPRHPLIRDMLRRIKEDEDDKTVLDLAVVLFETATLRSGYLLPDTKAYGDRIERMLRLSLNIDPDAKVEEEPEEEPEETAEDTTEDTEQDEDEEMDVGTDEEEETAKESTAEYPYDVPDYA
B2: SEQ ID. NO. 65: alanine-scanning mutant of GRP94-ΔKDEL, CBD region YGWSGNMERIMKAQAYATGKAISTNAA (SEQ ID. NO. 79) (protein, listed as Homo Sapiens)
chain: MRALWVLGLCCVLLTFGSVRADDEVDVDGTVEEDLGKSREGSRTDDEVVQREEEAIQLDGLNASQIRELREKSEKFAFQAEVNRMMKLIINSLYKNKEIFLRELISNASDALDKIRLISLTDENALSGNEELTVKIKCDKEKNLLHVTDTGVGMTREELVKNLGTIAKSGTSEFLNKMTEAQEDGQSTSELIGQFGVGFYSAFLVADKVIVTSKHNNDTQHIWESDSNEFSVIADPRGNTLGRGTTITLVLKEEASDYLELDTIKNLVKKYSQFINFPIYVWSSKTETVEEPMEEEEAAKEEKEESDDEAAVEEEEEEKKPKTKKVEKTVWDWELMNDIKPIWQRPSKEVEEDEYKAFYKSFSKESDDPMAYIHFTAEGEVTFKSILFVPTSAPRGLFDEYGSKKSDYIKLYVRRVFITDDFHDMMPKYLNFVKGVVDSDDLPLNVSRETLQQHKLLKVIRKKLVRKTLDMIKKIADDKYNDTFWKEFGTNIKLGVIEDHSNRTRLAKLLRFQSSHHPTDITSLDQYVERMKEKQDKIYFMAGSSRKEAESSPFVERLLKKGYEVIYLTEPVDEYCIQALPEFDGKRFQNVAKEGVKFDESEKTKESREAVEKEFEPLLNWMKDKALKDKIEKAVVSQRLTESPCALVASQYGWSGNMERIMKAQAYATGKAISTNAAASQKKTFEINPRHPLIRDMLRRIKEDEDDKTVLDLAVVLFETATLRSGYLLPDTKAYGDRIERMLRLSLNIDPDAKVEEEPEEEPEETAEDTTEDTEQDEDEEMDVGTDEEEETAKESTAEYPYDVPDYA
B3: SEQ ID. NO. 7: polypeptide of the invention; in b217 apparently the truncated CBD-CT form of GRP94 (protein)
chain: MRALWVLGLCCVLLTFGSVRAYGWSGNMERIMKAQAYQTGKDISTNYYASQKKTFEINPRHPLIRDMLRRIKEDEDDKTVLDLAVVLFETATLRSGYLLPDTKAYGDRIERMLRLSLNIDPDAKVEEEPEEEPEETAEDTTEDTEQDEDEEMDVGTDEEEETAKESTAE

Biological target: T1, PCSK9-V5 (Homo sapiens, UniProt Q8NBP7)
T1 construct: Full-length human V5-tagged PCSK9 and LDLR were subcloned into pIRES2-EGFP; expressed in transfected cells; host or cells: HEK293
T1 sequence (Q8NBP7 153-692): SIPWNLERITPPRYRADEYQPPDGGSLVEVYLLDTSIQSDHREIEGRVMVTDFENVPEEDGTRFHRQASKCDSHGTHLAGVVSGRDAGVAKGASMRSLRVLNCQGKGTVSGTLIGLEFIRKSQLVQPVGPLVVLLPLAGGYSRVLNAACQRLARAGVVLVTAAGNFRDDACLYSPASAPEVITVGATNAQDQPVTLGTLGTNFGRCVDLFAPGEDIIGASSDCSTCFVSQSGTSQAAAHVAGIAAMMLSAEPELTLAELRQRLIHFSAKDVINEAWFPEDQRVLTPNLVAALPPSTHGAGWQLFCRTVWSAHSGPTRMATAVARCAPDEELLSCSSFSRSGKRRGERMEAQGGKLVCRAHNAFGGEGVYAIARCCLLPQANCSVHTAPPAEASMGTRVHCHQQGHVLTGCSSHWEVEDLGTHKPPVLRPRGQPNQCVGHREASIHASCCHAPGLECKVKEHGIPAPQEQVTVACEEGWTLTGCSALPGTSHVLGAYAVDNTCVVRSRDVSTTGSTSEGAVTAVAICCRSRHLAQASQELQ
Test: Co-immunoprecipitation of GRP94 constructs with PCSK9-V5 in transfected HEK293 cells
Type: binding
Description: FIG. 2: Mapping of the PCSK9-GRP94 interacting domain. (a-b) HEK293 cells were transfected without (−) or with (+) PCSK9-V5 or SEQ ID NO. 66, 64 or 65. A PCSK9 V5 epitope-tag fusion protein (PCSK9-V5) was immune-precipitated from cell lysates using mAb-V5 antibody (IP: V5) and immune-blotted as indicated. Total GRP94 (SEQ. ID. NO. 3) and PCSK9 (SEQ. ID. NO. 1) protein levels were analyzed by immune-blotting in cell lysates (input) and conditioned media. (c) Left panel; HEK293 cells were transfected without (−) or with (+) PCSK9-V5, SEQ. ID. NO. 66 or 46. PCSK9-V5 was immune-precipitated for cell lysates (IP: V5) and immune-blotted (IB) as indicated. Total GRP94 and PCSK9 protein levels were also analyzed by immune-blotting and herein used as a control (input). Right panel; GRP94 homodimer (gray and yellow) crystal structure was determined from PDB file #2O1V using MacPymol software. […] 6 in which critical residues for PCSK9 binding determined in (b) are indicated in blue for SEQ. ID. NO. 64 and red for SEQ. ID. NO. 65. Data are representative of at least three independent experiments.
For identification of novel PCSK9 interactors, HepG2 or Huh-7 cells (55 cm2) were washed three times in phosphate-buffered saline (PBS) and incubated with 1 mM dithiobis[succinimidylpropionate] (DSP; Cat. #22585, Thermo Scientific), a thiol-cleavable cross-linking reagent, for 30 min at room temperature and subsequently switch for 15 min into a stop solution (15 mM Tris, pH 7.5). Cells were then lysed in complete radio-immune precipitation assay (RIPA) buffer (50 mM Tris/HCl, pH 8.0, 1% (v/v) Nonidet P40, 0.5% sodium deoxycholate, 150 mM NaCl and 0.1% (v/v) sodium dodecyl sulfate (SDS)) supplemented with a complete protease inhibitor mixture (Cat. #11 697 498 001, Roche Applied Science), passed 25 times through a 22-gauge needle and centrifuged at 11,000 g for 15 min at 4° C. Supernatants were incubated and rotated overnight with pre-immune serum, rabbit anti-hPCSK9 (amino acids 31-454) (1:250; Dr. Nabil Seidah, Clinical Research Institute of Montreal) or mouse anti-V5-tag (1:500; Cat. #R96025, Life Technologies) together with 50 μl protein A/G PLUS-agarose (Cat. #sc-2003, Santa Cruz). Following overnight incubation, beads were washed six times in RIPA buffer and resuspended in 75 μl Laemmli sample buffer. Co-immunoprecipitated (Co-IP) proteins were separated by 8% SDS-polyacrylamide gel electrophoresis and visualized using the Pierce silver stain kit (Cat. #24600, Thermo Scientific) according the manufacturer's instructions. All other Co-IP experiments were performed as described without the cross-linking step and in SDS-deprived RIPA buffer. HA-tagged proteins and GRP94 were immunoprecipitated with mouse anti-HA-tag (1:500; Cat. #H3663, Sigma-Aldrich) or rat anti-Grp94 (9G10, 1:1000; Cat. #ADI-SPA-850, Enzo Life Sciences).
We next decided to map GRP94 domain(s) important for PCSK9 protein-protein interaction. The overall domain structure of GRP94 includes a signal polypeptide (amino acids; aa1-21) followed by a N-terminal enzymatic ATP-binding domain (aa22-651), client-binding domain (CBD; aa652-678), C-terminal dimerization domain (aa679-799) and a KDEL polypeptide sequence (aa800-803) allowing retention of GRP94 in the endoplasmic reticulum. (Dollins et al., 2007; Maki et al., 1990; Wu et al., 2012) Thus, we first generated cDNA constructs encoding secretable HA-tagged forms of human GRP94 lacking its C-terminal KDEL polypeptide (SEQ ID. NO. 66; FIG. 2). HEK293 cells were transfected without or with SEQ ID. NO. 66 in absence or presence of PCSK9-V5 (FIG. 2a). […] NO. 66 is well expressed (Input; IB: HA) and secreted into media and that SEQ ID. NO. […] It was reported that a 27 aa C-terminal hydrophobic loop structure within GRP94 client-binding domain (CBD, amino acids aa652-678; ^652[…], SEQ ID. NO. 4) was important for folding and interaction with Toll-like receptors and integrins. (Wu et al., 2012) Deletion or alanine-scan mutations in SEQ ID. […]

Molecule | Interaction (binding) with PCSK9 by co-immunoprecipitation | Interaction (binding) with PCSK9 by co-immunoprecipitation (listed as AA1) | Interaction (binding) with PCSK9 by co-immunoprecipitation (listed as AA2)
B1 | abrogate binding to PCSK9 | abolished PCSK9 binding | 
B2 | abrogate binding to PCSK9 |  | abolished PCSK9 binding
B3 | significantly enhanced |  | 
